Test results as given in publication PMC5489419 (Molecular cell, 2017).

Biological target: WWP2 N-terminal fragment X (C2 domain, WW1 domain, WW2 domain) of TEV-cleaved WWP2 (human, UniProt O00308 1-395)
Test: SEC

binding result: binds
B1: WWP2 C-terminal fragment Y (WW3 domain, WW4 domain, HECT domain) of TEV-cleaved WWP2 (domain or fragment)
chain: not shown
